Consider 1 molecule from patent US20260274976A1 (BIO THERA SOLUTIONS, published 2026).

Experiment [1] deals with T1, human OX40 on PG-Jurkat-hOX40-NF-κB cells (human, UniProt P43489 29-277).
T1 sequence (looked up): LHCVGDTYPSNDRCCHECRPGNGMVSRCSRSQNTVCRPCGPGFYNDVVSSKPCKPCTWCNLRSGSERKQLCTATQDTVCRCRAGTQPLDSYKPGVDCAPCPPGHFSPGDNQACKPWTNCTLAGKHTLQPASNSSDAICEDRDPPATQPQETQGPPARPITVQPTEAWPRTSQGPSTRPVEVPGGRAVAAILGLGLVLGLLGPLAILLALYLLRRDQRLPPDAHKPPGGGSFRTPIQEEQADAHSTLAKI
The experiment can be described thus: cell-based or functional assay.

For experiment [2], the target named is T1, human OX40 on PG-Jurkat-hOX40-NF-κB …. The experiment can be described thus: flow cytometry competition against OX40L-mFc on PG-Jurkat-OX40-NF-κB cells; reference is antibody KHK4083.
Description: PG-Jurkat-OX40-NF-κB cells were resuspended in 1×PBS to achieve a density of 1×10⁷ cells/mL. […] PG-Jurkat-OX40-NF-κB cells were plated in sample wells, control wells, and blank wells at 50 μL/well, and the cell count was 5×10⁵ cells/well at this point. Antibody diluents at different concentrations were added to sample wells at 50 μL/well, and the mixture was mixed well. 50 μL of 1×PBS was added to control wells and blank wells. The 96-well V-bottom plate was incubated in a refrigerator at 4° C. for 5 min. […] After the incubation was complete, the 96-well V-bottom plate was taken out. The diluted ligand solution was added to sample wells and control wells at 50 μL/well as soon as possible, and the mixture was mixed well by pipetting. […] The 96-well V-bottom plate was incubated in a refrigerator at 4° C. for 50 min. The plate was washed with 1×PBS, and the supernatant was removed for further incubation.
Anti-mFc APC (Bioss, Cat. No.: BJ01138707) was diluted with 1×PBS at a ratio of 1:800, and 100 μL of the diluted anti-mFc APC was added to each well except for blank wells to resuspend the cells. The plate was incubated in the dark in a refrigerator at 4° C. for 30 min. After the incubation, the cells were washed with 1×PBS and finally resuspended in 1×PBS at 200 μL/well for flow cytometry analysis.

B1: antibody M-KF (antibody, human IgG1, kappa, V domains shown)
VH: QVQLVESGGGVVQPGESLRLSCAASGFTFSSYGMHWVRQAPGKGLEWVAVIWEDGSNQYYADSVKGRFTISRDNSKNTLYLQMNSLRAEDTAVYYCAKDNQDTSPDVGIDYWGQGTLVTVSS
VL: DIQMTQSPSSLSASVGDRVTITCRASQNISPFLNWYQQKPGKAPKLLIYAAVGLQSGVPSRFSGSGSGTDFTLTISSLQPEDFATYYCQQYTDYPLTFGGGTKVEIKR
notes: also called anti-OX40 antibody
As to B1, the “fold lower IC50 than antibody KHK4083 in blocking OX40L-mFc activation of OX40 signals (NF-κB luciferase reporter)” value in experiment [1] turned out to be 4.8 times. In addition, the “fold lower IC50 than antibody KHK4083” value in experiment [2] amounted to 2.8 times.
